Target: maize RIP β-chain (second component of the gePSI), C-terminally fused to a murine ornithine decarboxylase (ODC36) degron (maize (Zea mays); murine) (UniProt P00860)
Test: cell-based or functional assay
Settings: scale: normalized nascent protein signal

Chain of UniProt P00860 (P00860 426-461, tags or fused parts left off): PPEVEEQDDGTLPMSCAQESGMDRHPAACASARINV

“maize RIP α-chain (first component of the gePSI) (from UniProt P25891 22-161) (enzyme)” gave a nascent protein signal of gePSI-transfected neurons after 4 h dox, normalized to the mean of neighboring untransfected neurons (FIG. 1g) of 0.21.

— patent US20220220164A1
